The values that follow come from PMC8728441, “Biosynthesis of the redox cofactor mycofactocin is controlled by the transcriptional regulator MftR and induced by long-chain acyl-CoA species” (The Journal of Biological Chemistry, 2021).

Data set [1] concerns the target T1, MftR WT (Mycobacterium smegmatis mc2155, UniProt A0QSB5 1-200).
T1 sequence: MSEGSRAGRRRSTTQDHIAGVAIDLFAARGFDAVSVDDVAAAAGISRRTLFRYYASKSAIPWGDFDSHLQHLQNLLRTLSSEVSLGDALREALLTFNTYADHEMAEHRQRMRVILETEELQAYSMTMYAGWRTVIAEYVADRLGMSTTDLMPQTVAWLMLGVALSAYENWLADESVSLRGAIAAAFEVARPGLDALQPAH
The experiment in a line: EMSA. The conditions noted are these: EMSA: 50 mM Hepes, 50 mM NaCl, 0.1 mM EDTA, pH 7.5, room temperature 10 min, 5% PAGE in 1x TBE on ice; footprinting: 30 C 30 min; FP conditions not in material. (In general: In EMSA bound probe runs differently from free probe, usually more slowly.)

Data set [2] has as its target T2, MftR L120R (Mycobacterium smegmatis mc2155, UniProt A0QSB5 1-200, L120R).
T2 sequence: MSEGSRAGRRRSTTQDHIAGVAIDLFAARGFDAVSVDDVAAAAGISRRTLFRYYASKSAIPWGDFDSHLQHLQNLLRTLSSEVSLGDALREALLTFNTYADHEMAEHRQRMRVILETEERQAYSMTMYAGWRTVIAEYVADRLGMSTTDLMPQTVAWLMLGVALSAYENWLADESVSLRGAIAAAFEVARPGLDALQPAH
Briefly: fluorescence polarization; EMSA: 50 mM Hepes, 50 mM NaCl, 0.1 mM EDTA, pH 7.5, room temperature 10 min, 5% PAGE in 1x TBE on ice; footprinting: 30 C 30 min; FP conditions not in material. Text fold changes for R29A/R48A and L120R/M127A are swapped relative to Table 2; table values used. The conditions noted are these: protein: recombinant; tags: His-tag (pET-28a); chain copies: 2; label: 6-FAM; blunt.

The target in data set [3] is T3, MftR D38A (Mycobacterium smegmatis mc2155, UniProt A0QSB5 1-200, D38A).
T3 sequence: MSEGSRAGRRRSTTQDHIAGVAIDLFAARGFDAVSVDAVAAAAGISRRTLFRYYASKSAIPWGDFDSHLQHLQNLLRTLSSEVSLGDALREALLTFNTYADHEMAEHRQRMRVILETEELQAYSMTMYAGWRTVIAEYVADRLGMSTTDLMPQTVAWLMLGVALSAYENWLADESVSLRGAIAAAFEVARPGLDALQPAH
Described as above. The following applies: protein: recombinant; tags: His-tag (pET-28a); chain copies: 2; label: 6-FAM; blunt.

The target in data set [4] is T4, MftR R29A (Mycobacterium smegmatis mc2155, UniProt A0QSB5 1-200, R29A).
T4 sequence: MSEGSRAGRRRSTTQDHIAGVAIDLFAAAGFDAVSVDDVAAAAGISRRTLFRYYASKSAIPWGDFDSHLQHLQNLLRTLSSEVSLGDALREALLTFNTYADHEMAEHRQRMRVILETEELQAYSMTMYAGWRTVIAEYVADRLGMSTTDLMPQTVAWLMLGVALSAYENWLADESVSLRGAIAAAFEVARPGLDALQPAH
The data set is described as above. The conditions noted are these: protein: recombinant; tags: His-tag (pET-28a); chain copies: 2; label: 6-FAM; blunt.

Data set [5] concerns the target T1, MftR WT. The data set is described as above. The following applies: protein: recombinant; tags: His-tag (pET-28a, NdeI/XhoI); chain copies: 2; label: 6-FAM; blunt.
Data set [6] concerns the target T5, MftR M127A (Mycobacterium smegmatis mc2155, UniProt A0QSB5 1-200, M127A).
T5 sequence: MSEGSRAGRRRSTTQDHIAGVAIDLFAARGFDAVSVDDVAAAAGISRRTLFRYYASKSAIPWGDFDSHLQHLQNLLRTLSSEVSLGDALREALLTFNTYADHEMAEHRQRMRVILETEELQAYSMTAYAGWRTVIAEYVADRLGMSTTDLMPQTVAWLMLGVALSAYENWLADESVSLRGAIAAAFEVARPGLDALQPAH
The data set is described as above. The conditions noted are these: protein: recombinant; tags: His-tag (pET-28a); chain copies: 2; label: 6-FAM; blunt.

Data set [7] deals with T6, MftR R48A (Mycobacterium smegmatis mc2155, UniProt A0QSB5 1-200, R48A).
T6 sequence: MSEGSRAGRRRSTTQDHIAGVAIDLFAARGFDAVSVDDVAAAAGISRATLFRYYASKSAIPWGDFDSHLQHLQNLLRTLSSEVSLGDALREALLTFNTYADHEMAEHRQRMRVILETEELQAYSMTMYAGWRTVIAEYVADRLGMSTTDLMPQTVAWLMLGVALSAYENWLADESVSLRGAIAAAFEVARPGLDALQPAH
Described as above. The conditions noted are these: protein: recombinant; tags: His-tag (pET-28a); chain copies: 2; label: 6-FAM; blunt.

Data set [8] has as its target T7, MftR H68A (Mycobacterium smegmatis mc2155, UniProt A0QSB5 1-200, H68A).
T7 sequence: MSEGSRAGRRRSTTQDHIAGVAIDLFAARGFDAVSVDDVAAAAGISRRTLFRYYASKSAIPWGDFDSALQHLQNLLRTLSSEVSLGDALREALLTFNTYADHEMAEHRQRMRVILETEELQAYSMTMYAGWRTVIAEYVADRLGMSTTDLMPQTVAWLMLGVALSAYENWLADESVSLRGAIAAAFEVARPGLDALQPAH
Briefly: EMSA; 100 uM oleoyl-CoA; EMSA: 50 mM Hepes, 50 mM NaCl, 0.1 mM EDTA, pH 7.5, room temperature 10 min, 5% PAGE in 1x TBE on ice; footprinting: 30 C 30 min; FP conditions not in material. Text fold changes for R29A/R48A and L120R/M127A are swapped relative to Table 2; table values used. The following applies: protein: recombinant; tags: His-tag (pET-28a); chain copies: 2; label: 6-FAM; blunt.

The target in data set [9] is T8, MftR D16R (Mycobacterium smegmatis mc2155, UniProt A0QSB5 1-200, D16R).
T8 sequence: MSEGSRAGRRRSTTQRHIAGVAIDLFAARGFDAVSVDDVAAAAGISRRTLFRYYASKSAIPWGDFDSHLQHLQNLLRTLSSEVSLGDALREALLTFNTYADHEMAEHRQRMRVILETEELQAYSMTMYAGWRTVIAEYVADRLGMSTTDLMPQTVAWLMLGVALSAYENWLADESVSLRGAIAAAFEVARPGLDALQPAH
The data set is described as above. The conditions noted are these: protein: recombinant; tags: His-tag (pET-28a); chain copies: 2; label: 6-FAM; blunt.

For the molecule Pmft, the Kd (as a rule, the equilibrium constant for the complex coming apart) in data set [1] worked out at 600 nM.

B1: FAM-Omft (dsDNA)
DNA 1: TCCATTCTGGCACTCGATGCCATATAT
DNA 2: ATATATGGCATCGAGTGCCAGAATGGA
With B1, the Kd in data set [2] came out at 28 ± 6 µM; in [4], 20.5 ± 2 µM; in [5] it was 1300 ± 600 nM; in [6], 13 ± 6 µM; in data set [7], 13 ± 1.1 µM. The binding result is on record as “no binding” in [3], “binds” in [8] and “binds” in data set [9].
